Test results taken from patent US20120004117A1 (FORERUNNER PHARMA RESEARCH, published 2012).

Legend:
[1] = biological target: T1, human TM4SF20 (Transmembrane 4 L6 family member 20), endogenous (human, UniProt Q53R12 1-229); test: flow cytometry, purified antibody at 10 µg/mL on A549 cells
T1 construct: Untagged native protein as on A549 lung adenocarcinoma cells and in clinical stomach cancer sections; also called TM4SF20 protein
T1 sequence: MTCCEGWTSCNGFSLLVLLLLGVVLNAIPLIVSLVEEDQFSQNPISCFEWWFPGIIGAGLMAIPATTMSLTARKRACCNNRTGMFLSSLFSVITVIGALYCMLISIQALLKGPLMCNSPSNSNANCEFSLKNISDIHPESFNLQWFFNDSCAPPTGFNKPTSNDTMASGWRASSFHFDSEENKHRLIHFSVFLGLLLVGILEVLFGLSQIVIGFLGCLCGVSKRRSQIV
Description: (§1) Next, 5×10⁴ cells suspended in FACS buffer were dispensed to a U-bottom 96-well plate. The anti-TM4SF20 antibody (hybridoma culture supernatant) or the HAT medium as a negative control was added thereto at a concentration of 10 μg/mL. After reaction on ice for 1 hour, the cells were washed with FACS buffer. Next, an FITC-labeled anti-mouse antibody (Goat F(ab′)₂ Fragment Anti-mouse IgG (H+L)-FITC, Beckman Coulter, Inc.) was added thereto as a secondary antibody and reacted on ice for 1 hour. The cells were washed with FACS buffer, then suspended in FACS buffer supplemented with 10 μg/mL propidium iodide (PI, Sigma-Aldrich Corp.), and assayed using a flow cytometer. The assay data was analyzed as to PI-negative cell populations using CELLQuest software. As a result, all the clones bound to TM4SF20_CHO but to neither […] nor DG44 cells (FIG. 4).
Each anti-TM4SF20 antibody prepared in Example 2 was used to evaluate TM4SF20 expression on the cell membrane of a human cancer cell line by flow cytometry. A primary antibody used was the anti-TM4SF20 antibody (purified antibody) or a negative control antibody (mIgG2a, BD Biosciences Pharmingen). […] The flow cytometry was conducted in the same way as in Example 3 except for the primary antibody used at a concentration of 10 μg/mL. As a result, the expression of TM4SF20 was confirmed on the cell membrane of the A549 cells (FIG. 9)

[2] = biological target: T2, N-terminally HA-tagged chimeric TM4SF20 version 1 expressed on CHO DG44 cells (chimeric TM4SF20 ver.1_CHO) (human TM4SF20 with the first loop …, UniProt Q53R12 2-229); test: flow cytometry, hybridoma culture supernatant on chimeric TM4SF20 ver.1_CHO cells
T2 construct: also called chimeric TM4SF20 ver.1_ntHA
T2 chain: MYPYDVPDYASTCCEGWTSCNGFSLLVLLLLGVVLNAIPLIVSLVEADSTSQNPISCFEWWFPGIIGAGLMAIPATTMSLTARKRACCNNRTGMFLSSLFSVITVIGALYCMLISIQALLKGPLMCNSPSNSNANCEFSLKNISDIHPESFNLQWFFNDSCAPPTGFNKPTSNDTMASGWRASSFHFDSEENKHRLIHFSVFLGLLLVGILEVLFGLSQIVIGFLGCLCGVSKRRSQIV
Description: as §1
(§2) Next, the binding of the anti-TM4SF20 antibody (hybridoma culture supernatant) was confirmed by flow cytometry in the same way as in Example 3. As a result, all the clones bound to chimeric TM4SF20 ver.1_CHO but to neither chimeric TM4SF20 ver.2_CHO nor DG44 cells (FIG. 6).

[3] = biological target: T3, N-terminally HA-tagged mouse TM4SF20 expressed on CHO DG44 cells (mTM4SF20_CHO) (mouse, UniProt Q9CQY8 2-226); test: flow cytometry, hybridoma culture supernatant on mTM4SF20_CHO cells
T3 construct: also called mTM4SF20_ntHA; pCOS2_mTM4SF20_ntHA product
T3 chain: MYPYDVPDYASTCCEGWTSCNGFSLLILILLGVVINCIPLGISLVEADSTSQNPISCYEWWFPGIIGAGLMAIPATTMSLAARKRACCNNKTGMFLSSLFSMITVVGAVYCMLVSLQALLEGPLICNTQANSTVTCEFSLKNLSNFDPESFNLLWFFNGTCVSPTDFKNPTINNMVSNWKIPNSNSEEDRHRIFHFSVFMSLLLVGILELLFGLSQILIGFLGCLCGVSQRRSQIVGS
Description: as §1

[4] = biological target: T4, N-terminally HA-tagged chimeric TM4SF20 version 2 expressed on CHO DG44 cells (chimeric TM4SF20 ver.2_CHO) (human TM4SF20 with the second loop …); test: flow cytometry, hybridoma culture supernatant on chimeric TM4SF20 ver.2_CHO cells
T4 construct: also called chimeric TM4SF20 ver.2_ntHA
T4 chain: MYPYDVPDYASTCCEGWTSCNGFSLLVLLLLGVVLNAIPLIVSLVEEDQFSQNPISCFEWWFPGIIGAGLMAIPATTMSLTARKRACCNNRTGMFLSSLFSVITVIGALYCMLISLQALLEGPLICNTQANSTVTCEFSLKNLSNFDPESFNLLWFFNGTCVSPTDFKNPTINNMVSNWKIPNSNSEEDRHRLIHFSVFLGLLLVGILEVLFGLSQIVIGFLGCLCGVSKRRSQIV
Description: as §1, §2

[5] = biological target: T5, GST_TM4SF20_C3 (human); test: western blotting of E. coli whole cell lysate, purified antibody
T5 construct: Tested as whole E. coli lysate, denatured, in western blotting; not shown: glutathione S-transferase (GST) tag encoded by the vector pGEX-6P-1 (GE Healthcare), upstream of the BamHI site
T5 chain: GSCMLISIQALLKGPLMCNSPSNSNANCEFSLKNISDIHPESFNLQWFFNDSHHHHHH
Description: (§3) Each construct was expressed using BL21 (DE3) Competent Cells (Takara Bio Inc.). The whole cell lysate was electrophoresed by SDS-PAGE and then transferred to a PVDF membrane (Immobilon-P, Millipore Corp.) for western blotting. The construct was detected using the anti-TM4SF20 antibody (purified antibody) at a concentration of 5 μg/mL, a 3000 fold-diluted secondary antibody (HRP-anti mIgG, GE Healthcare Bio-Sciences Corp.), and ECL Western Blotting Detection Reagents (GE Healthcare Bio-Sciences Corp). The expression of each construct was confirmed using an anti-GST antibody (GE Healthcare Bio-Sciences Corp.) and an anti-His antibody (Santa Cruz Biotechnology, Inc.). Secondary antibodies used were a HRP-labeled anti-goat antibody (Invitrogen Corp.) and a HRP-labeled anti-rabbit antibody (GE Healthcare Bio-Sciences Corp.), respectively.

[6] = biological target: T6, GST_TM4SF20_C2 (human); test: as above
T6 construct: Tested as whole E. coli lysate, denatured, in western blotting; not shown: glutathione S-transferase (GST) tag encoded by the vector pGEX-6P-1 (GE Healthcare), upstream of the BamHI site
T6 chain: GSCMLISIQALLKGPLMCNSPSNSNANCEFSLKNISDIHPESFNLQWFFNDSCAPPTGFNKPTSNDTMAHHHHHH
Description: as §3

[7] = biological target: T7, N-terminally HA-tagged TM4SF20 expressed on Ba/F3 cells (TM4SF20_Ba/F3) (human, UniProt Q53R12 2-229); test: flow cytometry screening of hybridoma supernatants on TM4SF20_Ba/F3 against parental Ba/F3 cells
T7 construct: Four-transmembrane protein on the cell membrane; also called TM4SF20_ntHA; pMCDN2_TM4SF20_ntHA product
T7 sequence: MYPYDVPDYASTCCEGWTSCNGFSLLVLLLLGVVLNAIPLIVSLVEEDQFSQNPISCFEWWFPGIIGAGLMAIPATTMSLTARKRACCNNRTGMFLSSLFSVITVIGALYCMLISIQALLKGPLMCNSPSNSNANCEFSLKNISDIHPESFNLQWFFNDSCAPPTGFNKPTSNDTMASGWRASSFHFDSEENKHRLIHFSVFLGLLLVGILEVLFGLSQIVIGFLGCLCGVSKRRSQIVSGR

[8] = biological target: T8, C-terminally HA-tagged TM4SF20 expressed on CHO DG44 cells (TM4SF20_CHO) (human, UniProt Q53R12 1-229); test: flow cytometry, hybridoma culture supernatant at 10 µg/mL on TM4SF20_CHO cells
T8 construct: also called TM4SF20_ctHA; pCOS2_TM4SF20_ctHA product
T8 sequence: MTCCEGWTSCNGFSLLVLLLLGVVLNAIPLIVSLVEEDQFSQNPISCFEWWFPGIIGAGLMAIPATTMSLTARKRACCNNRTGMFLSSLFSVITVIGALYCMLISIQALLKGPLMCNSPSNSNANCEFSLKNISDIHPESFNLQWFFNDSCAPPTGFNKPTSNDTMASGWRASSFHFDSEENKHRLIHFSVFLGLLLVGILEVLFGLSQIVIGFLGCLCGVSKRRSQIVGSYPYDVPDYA
Description: as §1

Binder | binding result [1] | binding result [2] | binding result [3] | binding result [4] | binding result [5] | binding result [6] | binding result [7] | binding result [8]
anti-TM4SF20 antibody B11 (antibody, mouse IgG1, V domains shown, also called clone B11) VH: EVQLQQSGPELVKPGASVKMSCKASGYRFTNYVMHWVKQKPGQGLEWIGYINPYNAGTKYNEKFKGKATLTSDKSSSTAYMELSSLTSEDSAVYYCARGAGWSLRFADWGQGTLVTVSA VL: DILMTQSPSSMSVSLGDTVSITCHASQGISSNIGWLQQKPGKSFKGLIYLATNLEDGVPSRFSGSGSGADYSLTITSLESEDFAVYYCVQYSQFPRTFGGGTKLEIK | binds | binds | no binding (tested: 10 µg/mL) | no binding | no binding (tested: 5 µg/mL) | no binding (tested: 5 µg/mL) | binds | binds
anti-TM4SF20 antibody B12 (antibody, mouse IgG1, V domains shown, also called clone B12) VH: QVQLKESGPDLVQPSQTLSLTCTVSGFSLTNYGVHWVRQPPGKGLEWVGTMGWDDKKYYNSALKSRLSISRDTSKNQVFLKLSSLQTEDTAMYYCTRNVNFDYWGQGTTLTVSS VL: not shown | binds | binds | no binding (tested: 10 µg/mL) | no binding | no binding (tested: 5 µg/mL) | no binding (tested: 5 µg/mL) | binds | binds
anti-TM4SF20 antibody B8 (antibody, mouse IgG2b, V domains shown, also called clone B8) VH: RVQLKESGPDLVQPSQTLSLTCTVSGFSLTNYGVHWIRQPPGKGLEWVGTVGWDDKKYYNSVLKSRLSINRDTSKNQVFLKLSSLQTEDTAMYYCTPYYDGSPYVMDYWGQGTSVTVSS VL: DIVMSQSPSSLAVSAGEKVTMTCKSSQSLFDSGTRKNYLAWYQQKPGQSPKLLIYWASTRESGVPDRFTGSGSGTDFTLTISSVQAEDLAVYYCKQSYYLLTFGAGTKLELK | – | – | no binding (tested: 10 µg/mL) | no binding | no binding (tested: 5 µg/mL) | no binding (tested: 5 µg/mL) | – | –
anti-TM4SF20 antibody B15 (antibody, mouse IgG2a, V domains shown, also called clone B15) VH: RVQLKESGPDLVQPSQTLSLTCTVSGFSLTNYGVHWIRQPPGKGLEWVGTVGWDDKKYYNSVLKSRLSINRDTSKNQVFLKLSSLQTEDTAMYYCTPYYDGSPYVMDYWGQGTSVTVSS VL: DIVMSQSPSSLAVSAGEKVTMTCKSSQSLFDSGTRKNYLAWYQQKPGQSPKLLIYWASTRESGVPDRFTGSGSGTDFTLTISSVQAEDLAVYYCKQSYYLLTFGAGTKLELK | – | – | no binding (tested: 10 µg/mL) | no binding | no binding (tested: 5 µg/mL) | no binding (tested: 5 µg/mL) | – | –
anti-TM4SF20 antibody C7 (antibody, mouse IgG1, V domains shown, also called clone C7) VH: QVQLKESGPDLVQPSQTLSLTCTVSGFSLSSYGVHWVRQPPGKGLEWVGTMGWDDKKYYNSALNSRLSLSRDTSKNQVFLKLSSLQTEDTAMYYCTRDYYSDGSFAYWGQGTLVTVSA VL: DVLMTQTPLSLPVSLGDQASISCKSSQSIVHSDGNTYLQWYLQKPGQSPKLLIYKVSNRFSGVPDRFSGSGSGTDFTLKISRVEAEDLGIYYCFQGSHVPPTFGTGTKLEIK | – | – | no binding (tested: 10 µg/mL) | no binding | no binding (tested: 5 µg/mL) | no binding (tested: 5 µg/mL) | – | –
anti-TM4SF20 antibody C9 (antibody, mouse IgG1, V domains shown, also called clone C9) VH: QVQLKESGPDLVQPSQTLSLTCTVSGFSLSSYGVHWVRQPPGKGLEWVGTMGWDDKKYYNSALNSRLSLSRDTSKNQVFLKLSSLQTEDTAMYYCTRDYYSDGSFAYWGQGTLVTVSA VL: DVLMTQTPLSLPVSLGDQASISCKSSQSIVHSDGNTYLQWYLQKPGQSPKLLIYKVSNRFSGVPDRFSGSGSGTDFTLKISRVEAEDLGIYYCFQGSHVPPTFGTGTKLEIK | – | – | no binding (tested: 10 µg/mL) | no binding | no binding (tested: 5 µg/mL) | no binding (tested: 5 µg/mL) | – | –
